From patent US20240425588A1 (published 2024) come the findings set out here.

This assay addresses Cynomolgus TIGIT. The assay is described as follows: Biacore. Background: Surface plasmon resonance follows binding to a sensor surface in real time, without labels.

B1: 50C2 Affinity Matured (HAM) (antibody, V domains shown)
VH: QVQLQESGPGLVKPSETLSLTCTVSGFSLTNYNINWIRQPPGKGLEWIGVIWNGGGTNYNSAFMSRVTISKDTSKNQVSLKLSSVTAADTAVYYCVREAYFSNYGFYFDYWGQGTLVTVSS
VL: DIQMTQSPSSLSASVGDRVTITCSASSSISSNYLHWYQQKPGKAPKLLIYRTSNLASGVPSRFSGSGSGTDFTLTISSLQPEDFATYYCQQGSSIPRTFGGGTKVEIK
As for B1, binding was put at a Kd of 19.2 nM.

B2: 50C2 Humanized (Hu) (antibody, V domains shown)
VH: QVQLQESGPGLVKPSETLSLTCTVSGFSLTNYNINWIRQPPGKGLEWIGVIWTGGGTNYNSAFMSRVTISKDTSKNQVSLKLSSVTAADTAVYYCVREAYFSNYGFYFDYWGQGTLVTVSS
VL: DIQMTQSPSSLSASVGDRVTITCSASSSISSNYLHWYQQKPGKAPKLLIYRTSNLASGVPSRFSGSGSGTDFTLTISSLQPEDFATYYCQQGSSIPRTFGGGTKVEIK
As for B2, the Kd – broadly, the constant that tells how readily two partners part at equilibrium – was 69.5 nM.
